Measured values reported in patent US20230357429A1 (JANUX THERAPEUTICS, published 2023).
Numbering of substitutions follows the chain as printed. Numbers in names are those of the source. Where no end group is shown, it is not given here.

T1: Peptide-37 (cysteine pairing not given here; also: biotinylated, site not given here)
T1 peptide: VDFCYLYNWPVCSK

T2: Peptide-3 (cysteine pairing not given here; also: biotinylated, site not given here)
T2 peptide: IDFCMLYNWPICAG

T3: Peptide-39 (cysteine pairing not given here; also: biotinylated, site not given here)
T3 peptide: VDFCGLYHWPICYQVD

T4: Peptide-63 (cysteine pairing not given here; also: biotinylated, site not given here)
T4 peptide: IDFCLIYNWPVCDT

T5: Peptide-8 (cysteine pairing not given here; also: biotinylated, site not given here)
T5 peptide: VDFCGLYHWPICYQ

T6: Peptide-25 (cysteine pairing not given here; also: biotinylated (site not given here))
T6 peptide: VDFCKIYSWPVCHQ

T7: Peptide-36 (cysteine pairing not given here; also: biotinylated, site not given here)
T7 peptide: VDFCYQYGWPICSR

T8: Peptide-38 (cysteine pairing not given here; also: biotinylated, site not given here)
T8 peptide: VDFCSIYHWPVCYV

T9: Peptide-33 (cysteine pairing not given here; also: biotinylated, site not given here)
T9 peptide: PDFCYMYNWPVCVT

T10: Peptide-62 (cysteine pairing not given here; also: biotinylated, site not given here)
T10 peptide: IDFCAVYKWPVCQV

T11: Peptide-41 (cysteine pairing not given here; also: biotinylated, site not given here)
T11 peptide: VDFCGLYHWPICYQVY

T12: Peptide-40 (cysteine pairing not given here; also: biotinylated, site not given here)
T12 peptide: VDFCYLYSWPICTK

T13: Peptide-2 (cysteine pairing not given here; also: biotinylated (site not given here))
T13 peptide: IDFCAVYKWPVCQV

T14: Peptide-6 (cysteine pairing not given here; also: biotinylated, site not given here)
T14 peptide: IDFCLIYNWPVCDT

T15: Peptide-5 (cysteine pairing not given here; also: biotinylated, site not given here)
T15 peptide: VDFCKLYNWPVCQT

T16: Peptide-12 (cysteine pairing not given here; also: biotinylated (site not given here))
T16 peptide: PDFCAVYRWPICYQ

T17: Peptide-14 (cysteine pairing not given here; also: biotinylated (site not given here))
T17 peptide: LDFCKIYDWPICHL

T18: Peptide-18 (cysteine pairing not given here; also: biotinylated (site not given here))
T18 peptide: MDFCQIYDWPICRL

T19: Peptide-20 (cysteine pairing not given here; also: biotinylated (site not given here))
T19 peptide: VDFCSFYRWPICET

T20: Peptide-13 (cysteine pairing not given here; also: biotinylated (site not given here))
T20 peptide: VDFCELYRWPICNS

T21: Peptide-17 (cysteine pairing not given here; also: biotinylated (site not given here))
T21 peptide: IDFCLLYDWPICGR

T22: Peptide-27 (cysteine pairing not given here; also: biotinylated, site not given here)
T22 peptide: FSLVCVRNLYCWNV

T23: Peptide-28 (cysteine pairing not given here; also: biotinylated, site not given here)
T23 peptide: NYLLCVKNLYCWIV

T24: Peptide-10 (cysteine pairing not given here; also: biotinylated (site not given here))
T24 peptide: IDFCAIYQWPVCRS

T25: Peptide-4 (cysteine pairing not given here; also: biotinylated, site not given here)
T25 peptide: VDFCKIYAWPICGS

T26: Peptide-31 (cysteine pairing not given here; also: biotinylated, site not given here)
T26 peptide: YSLVCVKNLYCWNL

T27: Peptide-1 (cysteine pairing not given here; also: biotinylated (site not given here))
T27 peptide: IDFCAMYQWPICDT

T28: Peptide-26 (cysteine pairing not given here; also: biotinylated, site not given here)
T28 peptide: DNLICVKNLWCWIA

T29: Peptide-7 (cysteine pairing not given here; also: biotinylated, site not given here)
T29 peptide: EDFCKLYNWPICYQ

T30: Peptide-29 (cysteine pairing not given here; also: biotinylated, site not given here)
T30 peptide: SYLVCVKNVYCWTA

B1: TBD-11 (HC R98A) (Fab, V domains shown)
VH: QVQLQQSGSELKKPGASVKVSCKASGYTFTNYGMNWVKQAPGQGLKWMGWINTYTGEPTYTDDFKGRFAFSLDTSVSTAYLQISSLKADDTAVYFCAAGGFGSSYWYFDVWGQGSLVTVSS
VL: DIQLTQSPSSLSASVGDRVSITCKASQDVSIAVAWYQQKPGKAPKLLIYSASYRYTGVPDRFSGSGSGTDFTLTISSLQPEDFAVYYCQQHYITPLTFGAGTKVEIKR
notes: Fab; also called HC R98A mutant
B2: TBD-6 (LC I93A) (Fab, V domains shown)
VH: B1 VH with A98R
VL: B1 VL with I93A
notes: Fab; also called LC I93A mutant
B3: TBD-21 (HC F108A) (Fab, V domains shown)
VH: B1 VH with A98R, F108A
VL: B1 VL
notes: Fab; also called HC F108A mutant

Molecular target: T1, Peptide-37
Test: ELISA, Fab on captured biotin-peptide
Protocol: (§1) Binding was measured in a standard ELISA format. […] Bound TBDs were detected using a standard horse radish peroxidase conjugate secondary antibody. The ELISA signal was plotted versus the log-scale concentration of TBD. The concentrations of TBD required to observe half maximal binding signal (EC₅₀s) were calculated using Graphpad Prism software.

EC50	Binder
149 nM	B1
9.3 nM	B2
27.3 nM	B3

Molecular target: T2, Peptide-3
Test: ELISA, Fab on captured biotin-peptide
Protocol: as §1

EC50	Binder
296 nM	B1
18.3 nM	B2
30.8 nM	B3

Molecular target: T3, Peptide-39
Test: ELISA, Fab on captured biotin-peptide
Protocol: as §1

EC50	Binder
151 nM	B1
32.1 nM	B2
32.7 nM	B3

Molecular target: T4, Peptide-63
Test: ELISA, Fab on captured biotin-peptide
Protocol: as §1

EC50	Binder
229 nM	B1
9.5 nM	B2
39.7 nM	B3

Molecular target: T5, Peptide-8
Test: ELISA, Fab on captured biotin-peptide
Protocol: as §1

EC50	Binder
86.4 nM	B1
8.5 nM	B2
12.9 nM	B3

Molecular target: T6, Peptide-25
Test: ELISA, Fab on captured biotin-peptide
Protocol: as §1

EC50	Binder
10.9 nM	B2
42.3 nM	B3

Molecular target: T7, Peptide-36
Test: ELISA, Fab on captured biotin-peptide
Protocol: as §1

EC50	Binder
60.1 nM	B1
23.8 nM	B2
27 nM	B3

Molecular target: T8, Peptide-38
Test: ELISA, Fab on captured biotin-peptide
Protocol: as §1

EC50	Binder
290 nM	B1
9.8 nM	B2
26.1 nM	B3

Molecular target: T9, Peptide-33
Test: ELISA, Fab on captured biotin-peptide
Protocol: as §1

EC50	Binder
144 nM	B1
9.6 nM	B2
22.9 nM	B3

Molecular target: T10, Peptide-62
Test: ELISA, Fab on captured biotin-peptide
Protocol: as §1

EC50	Binder
136 nM	B1
5.1 nM	B2
14.3 nM	B3

Molecular target: T11, Peptide-41
Test: ELISA, Fab on captured biotin-peptide
Protocol: as §1

EC50	Binder
159 nM	B1
41 nM	B2
47.2 nM	B3

Molecular target: T12, Peptide-40
Test: ELISA, Fab on captured biotin-peptide
Protocol: as §1

EC50	Binder
310 nM	B1
30.4 nM	B2
45.8 nM	B3

Molecular target: T13, Peptide-2
Test: ELISA, Fab on captured biotin-peptide
Protocol: as §1

EC50	Binder
204 nM	B1
9.9 nM	B2
12.9 nM	B3

Molecular target: T2, Peptide-3
Test: ELISA, Fab on captured biotin-peptide
Remark: another data set of the same source
Protocol: as §1

EC50	Binder
246 nM	B1
11.4 nM	B2
12.3 nM	B3

Molecular target: T14, Peptide-6
Test: ELISA, Fab on captured biotin-peptide
Protocol: as §1

EC50	Binder
363 nM	B1
15 nM	B2
24.9 nM	B3

Molecular target: T15, Peptide-5
Test: ELISA, Fab on captured biotin-peptide
Protocol: as §1

EC50	Binder
232 nM	B1
9.9 nM	B2
15.6 nM	B3

Molecular target: T16, Peptide-12
Test: ELISA, Fab on captured biotin-peptide
Protocol: as §1

EC50	Binder
157 nM	B1
18.2 nM	B2
10.1 nM	B3

Molecular target: T17, Peptide-14
Test: ELISA, Fab on captured biotin-peptide
Protocol: as §1

EC50	Binder
332 nM	B1
145 nM	B2
53.3 nM	B3

Molecular target: T5, Peptide-8
Test: ELISA, Fab on captured biotin-peptide
Remark: another data set of the same source
Protocol: as §1

EC50	Binder
156 nM	B1
18.8 nM	B2
13 nM	B3

Molecular target: T18, Peptide-18
Test: ELISA, Fab on captured biotin-peptide
Protocol: as §1

EC50	Binder
298 nM	B1
83.2 nM	B2
38 nM	B3

Molecular target: T19, Peptide-20
Test: ELISA, Fab on captured biotin-peptide
Protocol: as §1

EC50	Binder
140 nM	B2
89 nM	B3

Molecular target: T20, Peptide-13
Test: ELISA, Fab on captured biotin-peptide
Protocol: as §1

EC50	Binder
388 nM	B1
21.4 nM	B2
22.6 nM	B3

Molecular target: T21, Peptide-17
Test: ELISA, Fab on captured biotin-peptide
Protocol: as §1

EC50	Binder
191 nM	B1
16.5 nM	B2
16.4 nM	B3

Molecular target: T22, Peptide-27
Test: ELISA, Fab on captured biotin-peptide
Protocol: as §1

EC50	Binder
178 nM	B2
149 nM	B3

Molecular target: T23, Peptide-28
Test: ELISA, Fab on captured biotin-peptide
Protocol: as §1

EC50	Binder
681 nM	B2
146 nM	B3

Molecular target: T24, Peptide-10
Test: ELISA, Fab on captured biotin-peptide
Protocol: as §1

EC50	Binder
272 nM	B1
8.5 nM	B2
15.2 nM	B3

Molecular target: T25, Peptide-4
Test: ELISA, Fab on captured biotin-peptide
Protocol: as §1

EC50	Binder
179 nM	B1
15.3 nM	B2
12.7 nM	B3

Molecular target: T6, Peptide-25
Test: ELISA, Fab on captured biotin-peptide
Remark: another data set of the same source
Protocol: as §1

EC50	Binder
> 1000 nM	B1
38.3 nM	B2
48.4 nM	B3

Molecular target: T26, Peptide-31
Test: ELISA, Fab on captured biotin-peptide
Protocol: as §1

EC50	Binder
791 nM	B2

Molecular target: T27, Peptide-1
Test: ELISA, Fab on captured biotin-peptide
Protocol: as §1

EC50	Binder
292 nM	B1
14.8 nM	B2
13.5 nM	B3

Molecular target: T28, Peptide-26
Test: ELISA, Fab on captured biotin-peptide
Protocol: as §1

EC50	Binder
390 nM	B3

Molecular target: T29, Peptide-7
Test: ELISA, Fab on captured biotin-peptide
Protocol: as §1

EC50	Binder
343 nM	B1
59.6 nM	B2
27.4 nM	B3

Molecular target: T30, Peptide-29
Test: ELISA, Fab on captured biotin-peptide
Protocol: as §1

EC50	Binder
43.8 nM	B2
23.4 nM	B3
